T1: hVISTA-Fc (R&D systems. Cat. No. 7126-B7) (human, UniProt Q9H7M9 33-194)
T1 construct: Bought antigen; also called human VISTA-Fc; VISTA-FC Human
T1 sequence: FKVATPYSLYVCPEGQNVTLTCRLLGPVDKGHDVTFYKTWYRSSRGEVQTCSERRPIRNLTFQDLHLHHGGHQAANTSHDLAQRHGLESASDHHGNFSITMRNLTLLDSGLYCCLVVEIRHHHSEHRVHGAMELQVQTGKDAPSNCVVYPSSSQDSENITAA

B1: anti-VISTA antibody 1B8 (IgG form) (antibody, V domains shown)
VH: QMQLVQSGAEVKKPGSSVKVSCKASGGSSSNYAISWVRQAPGQGLEWMGGIIPIFGTTSYAQKFQGRVTITADGSMSTAYMELSSLRSEDTAVYYCAKGAIEPWPFYFDNWGQGTLVTVSS
VL: QLVLTQPRSVSGSPGQSVTISCTGTNSDVGAYNYLSWYQQLPGRAPKVIIYDVNKRPSGVPDRFSGSRSGKTASLTISGLQAEDEADYYCAAWDDSLNGLVFGGGTKLTVLG
notes: also called Anti VISTA 3.0(1B8); anti-VISTA mAb 1B8
B2: anti-VISTA antibody 2B7 (IgG form) (antibody, V domains shown)
VH: QVQLVQSGGGLVKPGGSLRLSCAASGFTFSGSAMHWVRQASGKGLEWVGRIRSKANSYATAYAASVKGRFTISRDDSKNTAYLQMNSLKTEDTAVYYCSRVNSGYYGPDYWGKGTLVTVSS
VL: not shown
B3: PMC-309.3.4SA (antibody, V domains shown)
VH: QVQLVQSGAEVKKPGSSVKVSCKASGGSSSNYAISWVRQAPGQGLEWMGGIIPIFGTTSYAQKFQGRVTITADKSTSTAYMELSSLRSEDTAVYYCAKGAIEPWPFYFDNWGQGTLVTVSS
VL: QSALTQPRSVSGSPGQSVTISCTGTNSDVGAYNYLSWYQQLPGRAPKVIIYDVNKRPSGVPDRFSGSRSGKTASLTISGLQAEDEADYYCAAWDDNLYGLVFGGGTKLTVL
notes: light chain SA; also called PMC-309.3.45A
B4: Anti VISTA_V3_1 (IgG form) (antibody, V domains shown)
VH: QMQLVQSGAEVKKPGSSVKVSCKASGGSSSNYAISWVRQAPGQGLEWMGGIIPIFGTTSYAQKFQGRVTITADGSMSTAYMELSSLRSEDTAVYYCAKGAIEPWPFYFDNWGQGTLVTVSS
VL: QLVLTQPRSVSGSPGQSVTISCTGTNSDVGAYNYLSWYQQLPGRAPKVIIYDVNKRPSGVPDRFSGSRSGKTASLTISGLQAEDEADYYCAAWDDSLYGLVFGGGTKLTVLG
B5: Anti VISTA_V3_2 (IgG form) (antibody, V domains shown)
VH: QMQLVQSGAEVKKPGSSVKVSCKASGGSSSNYAISWVRQAPGQGLEWMGGIIPIFGTTSYAQKFQGRVTITADGSMSTAYMELSSLRSEDTAVYYCAKGAIEPWPFYFDNWGQGTLVTVSS
VL: QLVLTQPRSVSGSPGQSVTISCTGTNSDVGAYNYLSWYQQLPGRAPKVIIYDVNKRPSGVPDRFSGSRSGKTASLTISGLQAEDEADYYCAAWDDSLNDLVFGGGTKLTVLG
B6: PMC-309.3.3 (antibody, V domains shown)
VH: QMQLVQSGAEVKKPGSSVKVSCKASGGSSSNYAISWVRQAPGQGLEWMGGIIPIFGTTSYAQKFQGRVTITADGSMSTAYMELSSLRSEDTAVYYCAKGAIEPWPFYFDNWGQGTLVTVSS
VL: QLVLTQPRSVSGSPGQSVTISCTGTNSDVGAYNYLSWYQQLPGRAPKVIIYDVNKRPSGVPDRFSGSRSGKTASLTISGLQAEDEADYYCAAWDDNLYGLVFGGGTKLTVLG
B7: PMC-309.3.4w (antibody, V domains shown)
VH: QVQLVQSGAEVKKPGSSVKVSCKASGGSSSNYAISWVRQAPGQGLEWMGGIIPIFGTTSYAQKFQGRVTITADKSTSTAYMELSSLRSEDTAVYYCAKGAIEPWPFYFDNWGQGTLVTVSS
VL: QLVLTQPRSVSGSPGQSVTISCTGTNSDVGAYNYLSWYQQLPGRAPKVIIYDVNKRPSGVPDRFSGSRSGKTASLTISGLQAEDEADYYCAAWDDNLYGLVFGGGTKLTVLG
notes: Heavy chain G-H (framework substituted), wt light chain

What follows are binders tested against T1, hVISTA-Fc (R&D systems. Cat. No. …) (assay: Octet (BLI), antibody immobilised on biosensor, antigen in solution).
Experimental: (§1) The binding ability of the screened antibody to the antigen was measured using an Octet (ForteBio). For this purpose, the antibody was immobilized on a biosensor, various concentrations of antigen were added to a 96-well plate, and then the binding ability was measured.
For B1, the Kd was 9.29 nM, the koff was 0.00103 s⁻¹ and the kon was 111000 M⁻¹ s⁻¹. B2 showed a Kd of 5.8 nM, a koff of 0.000142 s⁻¹ and a kon of 24500 M⁻¹ s⁻¹.

Each binder was assayed against T1, hVISTA-Fc (R&D systems. Cat. No. …) (assay: Octet (BLI), antibody as ligand on biosensor, VISTA-Fc as analyte).
Experimental: as §1
Octet was used to evaluate the binding strength of the optimized anti-VISTA antibody while excluding clones with low productivity therefrom, and the experiment was performed in the same manner as the method presented in Example 6 (Table 11).
With B1 the Kd was 13.6 nM, the koff was 0.00209 s⁻¹ and the kon was 154000 M⁻¹ s⁻¹. B3 showed a Kd of 0.606 nM, a koff of 0.000134 s⁻¹ and a kon of 225000 M⁻¹ s⁻¹. For B4, the Kd was 2.86 nM, the koff was 0.00015 s⁻¹ and the kon was 52500 M⁻¹ s⁻¹. For B5, the Kd was 12.8 nM, the koff was 0.00191 s⁻¹ and the kon was 149000 M⁻¹ s⁻¹. Work on B6 yielded a Kd of 0.516 nM, a koff of 9.56e-05 s⁻¹ and a kon of 185000 M⁻¹ s⁻¹. Binder B7 has a Kd of 0.496 nM, a koff of 9.38e-05 s⁻¹ and a kon of 189000 M⁻¹ s⁻¹.

Source: US20200407449A1 (PHARMABCINE, published 2020)
